Target: streptavidin (Streptomyces avidinii, UniProt P22629 25-183)
Test: SPR; binding through the 3'-biotin, not the DNA sequence; 10 uM BiotinDNA in water gave about 90 RU; about 70 RU lost on displacement by free biotin (0.01-10.24 mM); SPR: 10 uM BiotinDNA in water, 10 uL/min, immobilized streptavidin; displacement by free biotin in water; temperature and pH not given
Conditions: protein: commercial; chain copies: 4; single strand

Chain of streptavidin (P22629 25-183): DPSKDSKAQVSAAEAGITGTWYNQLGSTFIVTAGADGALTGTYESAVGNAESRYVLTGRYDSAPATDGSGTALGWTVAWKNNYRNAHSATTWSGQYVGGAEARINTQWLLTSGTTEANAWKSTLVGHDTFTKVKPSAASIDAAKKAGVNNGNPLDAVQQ

Binder: AGCAGCCTAAG (ssDNA, 3'-biotin) [BiotinDNA]
- binding result: binds

— PMC5238629, “Streptavidin-coated gold nanoparticles: critical role of oligonucleotides on stability and fractal aggregation”
